Series [1] deals with Saccharomyces cerevisiae. As to the kind of experiment: protein stability index of tFT-peptide fusion (C-terminal peptide) (PSI (0-1 scale)); higher = more stable (slower turnover). The protocol:
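MPS profiling in S. cerevisiae of the tFT-X12 degron library: putative degron peptides plus stable controls, 12 aa, fused to the C-terminus of a sfGFP-mCherry timer. Cells are FACS-sorted into 8 mCherry/sfGFP bins and deep-sequenced. PSI runs from 0 (unstable) to 1 (stable). Backgrounds are wild type, das1Δ and doa10Δ at 30 °C, and wild type, das1Δ, cdc34-1 and cdc53-1 at 37 °C; 2-3 technical replicates each.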

The test system of series [2] is Saccharomyces cerevisiae. The series is described as above. Conditions: genetic background: wild type; temperature: 30 C.
Setting [3] is: genetic background: cdc34-1, temperature: 37 C.
The mark [4] stands for this setting: genetic background: cdc53-1, temperature: 37 C.
[5] abbreviates: genetic background: das1 deletion, temperature: 30 C.
Where [6] appears, read: genetic background: das1 deletion, temperature: 37 C.
Where [7] appears, read: genetic background: doa10 deletion, temperature: 30 C.
The mark [8] stands for this setting: genetic background: wild type, temperature: 30 C.
Where [9] appears, read: genetic background: wild type, temperature: 37 C.

± gives the standard deviation of the averaged measurements.
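Further: PSI is a weighted mean of sequencing reads over stability bins, variants kept only with over 10 reads, mCherry proximal and sfGFP distal, peptide attached via GGGS linker.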

Regarding LFIFYCFFFLVR, the protein stability index in the series on Saccharomyces cerevisiae [1] (setting [3]) amounted to 0.27 ± 0.059; with Saccharomyces cerevisiae [1] (setting [4]) it was 0.379 ± 0.087; with Saccharomyces cerevisiae [1] (setting [5]), 0.318 ± 0.043; with Saccharomyces cerevisiae [1] (setting [6]) it was 0.395 ± 0.0053; in the series with Saccharomyces cerevisiae [1] (setting [7]) it was 0.359 ± 0.029; with Saccharomyces cerevisiae [1] (setting [8]) it was 0.294 ± 0.0066. Besides, the protein stability index with Saccharomyces cerevisiae [1] (setting [9]) came to 0.3824 ± 0.002; with Saccharomyces cerevisiae [2], 0.352 ± 0.051.

For LFLEVCFFRLYF, the protein stability index came to 0.511 ± 0.055 with Saccharomyces cerevisiae [1] (setting [3]); 0.555 ± 0.037 with Saccharomyces cerevisiae [1] (setting [4]); 0.447 ± 0.032 in the series on Saccharomyces cerevisiae [1] (setting [5]); 0.54 ± 0.011 with Saccharomyces cerevisiae [1] (setting [6]); 0.46 ± 0.02 in the series on Saccharomyces cerevisiae [1] (setting [7]); 0.453 ± 0.032 with Saccharomyces cerevisiae [1] (setting [8]). The protein stability index in the series on Saccharomyces cerevisiae [1] (setting [9]) worked out at 0.5086 ± 0.0018; in the series on Saccharomyces cerevisiae [2], 0.465 ± 0.032.

For the sequence LFLLFLCLSSLF, the protein stability index with Saccharomyces cerevisiae [1] (setting [3]) was 0.561 ± 0.0098; in the series on Saccharomyces cerevisiae [1] (setting [4]), 0.584 ± 0.012; with Saccharomyces cerevisiae [1] (setting [5]), 0.487 ± 0.02; with Saccharomyces cerevisiae [1] (setting [6]), 0.591 ± 0.032; in the series on Saccharomyces cerevisiae [1] (setting [7]), 0.448 ± 0.016; in the series on Saccharomyces cerevisiae [1] (setting [8]), 0.436 ± 0.035. Also, the protein stability index in the series on Saccharomyces cerevisiae [1] (setting [9]) is 0.5205 ± 0.0021; with Saccharomyces cerevisiae [2], 0.435 ± 0.021.

On to LFLLSVNLLLGY, for which the protein stability index in the series on Saccharomyces cerevisiae [1] (setting [3]) stood at 0.0581 ± 0.025; in the series with Saccharomyces cerevisiae [1] (setting [4]), 0.0949 ± 0.028; in the series with Saccharomyces cerevisiae [1] (setting [5]) it was 0.138 ± 0.035; with Saccharomyces cerevisiae [1] (setting [6]), 0.191 ± 0.035; in the series with Saccharomyces cerevisiae [1] (setting [7]), 0.105 ± 0.0095; in the series with Saccharomyces cerevisiae [1] (setting [8]) it was 0.112 ± 0.04. Besides, the protein stability index in the series with Saccharomyces cerevisiae [1] (setting [9]) came out at 0.163 ± 0.0081; with Saccharomyces cerevisiae [2], 0.237 ± 0.065.

With LFLPFLPTLALL, the protein stability index with Saccharomyces cerevisiae [1] (setting [3]) was found to be 0.795 ± 0.029; in the series with Saccharomyces cerevisiae [1] (setting [4]), 0.823 ± 0.013; in the series on Saccharomyces cerevisiae [1] (setting [5]), 0.686 ± 0.032; in the series with Saccharomyces cerevisiae [1] (setting [6]), 0.7901 ± 0.0056; in the series on Saccharomyces cerevisiae [1] (setting [7]) it was 0.598 ± 0.021; in the series on Saccharomyces cerevisiae [1] (setting [8]), 0.623 ± 0.022. For the same sequence, the protein stability index in the series on Saccharomyces cerevisiae [1] (setting [9]) was 0.7359 ± 0.0023; with Saccharomyces cerevisiae [2] it was 0.231 ± 0.012.

Regarding LFLYDFIALRCS, the protein stability index worked out at 0.46 ± 0.016 in the series with Saccharomyces cerevisiae [1] (setting [3]); 0.55 ± 0.015 in the series with Saccharomyces cerevisiae [1] (setting [4]); 0.405 ± 0.025 with Saccharomyces cerevisiae [1] (setting [5]); 0.566 ± 0.032 in the series on Saccharomyces cerevisiae [1] (setting [6]); 0.2104 ± 0.00034 in the series on Saccharomyces cerevisiae [1] (setting [7]); 0.24 ± 0.024 in the series with Saccharomyces cerevisiae [1] (setting [8]). Moreover, the results for the protein stability index with Saccharomyces cerevisiae [1] (setting [9]) and in the series on Saccharomyces cerevisiae [2] were 0.413 ± 0.012 and 0.415 ± 0.038, respectively.

For LFRGVWYYFLVR, the protein stability index in the series with Saccharomyces cerevisiae [1] (setting [3]) was determined as 0.486 ± 0.041; with Saccharomyces cerevisiae [1] (setting [4]), 0.5274 ± 0.0022; with Saccharomyces cerevisiae [1] (setting [5]) it was 0.445 ± 0.021; in the series with Saccharomyces cerevisiae [1] (setting [6]), 0.61 ± 0.0087; in the series on Saccharomyces cerevisiae [1] (setting [7]), 0.504 ± 0.029; in the series on Saccharomyces cerevisiae [1] (setting [8]), 0.438 ± 0.029. Besides, the protein stability index with Saccharomyces cerevisiae [1] (setting [9]) came to 0.586 ± 0.019; in the series on Saccharomyces cerevisiae [2], 0.507 ± 0.028.

For LFSSFFVFRLLV, the protein stability index in the series with Saccharomyces cerevisiae [1] (setting [3]) turned out to be 0.322 ± 0.031; with Saccharomyces cerevisiae [1] (setting [4]) it was 0.432 ± 0.039; in the series on Saccharomyces cerevisiae [1] (setting [5]) it was 0.455 ± 0.028; in the series on Saccharomyces cerevisiae [1] (setting [6]), 0.581 ± 0.0041; in the series on Saccharomyces cerevisiae [1] (setting [7]), 0.0949 ± 0.016; with Saccharomyces cerevisiae [1] (setting [8]), 0.0904 ± 0.029. The protein stability index came out at 0.0847 ± 0.0039 with Saccharomyces cerevisiae [1] (setting [9]) and 0.146 ± 0.011 in the series on Saccharomyces cerevisiae [2].

For LFVFVLAGFCCV, the protein stability index came out at 0.352 ± 0.0073 in the series with Saccharomyces cerevisiae [1] (setting [3]); 0.436 ± 0.017 in the series on Saccharomyces cerevisiae [1] (setting [4]); 0.32 ± 0.025 with Saccharomyces cerevisiae [1] (setting [5]); 0.485 ± 0.011 with Saccharomyces cerevisiae [1] (setting [6]); 0.287 ± 0.0059 in the series on Saccharomyces cerevisiae [1] (setting [7]); 0.308 ± 0.039 with Saccharomyces cerevisiae [1] (setting [8]). The results for the protein stability index in the series on Saccharomyces cerevisiae [1] (setting [9]) and in the series on Saccharomyces cerevisiae [2] were 0.432 ± 0.041 and 0.381 ± 0.0073, respectively.

Turning to LFVPVFSFGFVC, the protein stability index in the series with Saccharomyces cerevisiae [1] (setting [3]) stood at 0.485 ± 0.0071; in the series on Saccharomyces cerevisiae [1] (setting [4]), 0.558 ± 0.0077; with Saccharomyces cerevisiae [1] (setting [5]) it was 0.415 ± 0.027; in the series on Saccharomyces cerevisiae [1] (setting [6]), 0.589 ± 0.009; with Saccharomyces cerevisiae [1] (setting [7]), 0.121 ± 0.02; with Saccharomyces cerevisiae [1] (setting [8]), 0.145 ± 0.014. Moreover, the protein stability index was found to be 0.237 ± 0.015 in the series on Saccharomyces cerevisiae [1] (setting [9]) and 0.226 ± 0.011 in the series on Saccharomyces cerevisiae [2].

These data come from the supplement of paper PMC10724198.
